Assay results reported in patent publication US10577428B2, “Anti-factor XI monoclonal antibodies and methods of use thereof” (Oregon Health & Science University, priority 2007, dated 2020).

Assays:
[1] = tested on: normal baboon plasma (NBP); test: aPTT and PT in normal baboon plasma in vitro; format: biochemical; settings: 0-40 nM
baboons (Papio anubis) = test: Thrombosis model, collagen coated 4 mm i.d. vascular grafts in AV shunt: platelet and fibrin deposition; format: in vivo, baboon (Papio anubis)
Protocol: A total of 39 non-terminal studies were performed on 17 normal juvenile male baboons (Papio anubis) weighing 9-11 kg. Experiments were conducted on non-anticoagulated awake animals that had chronic exteriorized arterio-venous (AV) shunts previously placed between the femoral artery and vein, as described elsewhere (Hanson et al. (1993) J. Clin. Invest. 92:2003-2012). Baseline shunt blood flow exceeded 250 ml/min in all study animals. Anxiety was managed with low dose ketamine (<2 mg/kg/hr). Platelet counts, red cell counts, and hematocrits were measured daily, before and after the experiments.
Thrombus formation was initiated within the baboon AV shunt by interposing a thrombogenic segment of prosthetic vascular graft (ePTFE, WL Gore & Co., Flagstaff, Ariz.), as previously described (Hanson et al. (1993) J. Clin. Invest. 92:2003-2012). To consistently trigger platelet-dependent thrombus formation, the clinical graft segments were coated with immobilized collagen. Twenty mm long grafts having internal diameters (i.d.) of either 2 or 4 mm were filled with equine type I collagen (1 mg/ml; Nycomed Arzenmittel, Munich, Germany) for 15 min, and then dried overnight under sterile airflow. This method produced a uniform collagen coating within the graft lumen as determined by scanning electron microscopy (FIGS. 1B and 1C). The thrombogenic collagen-coated grafts were then incorporated between segments of silicon rubber tubing, and deployed into the AV shunts (FIG. 1A). The grafts were exposed to blood for up to 60 min. During each experiment, the blood flow rate through the graft was restricted to 100 ml/min by clamping the proximal silicone rubber shunt segment, thereby producing a mean wall shear rate (MWSR) in the 4 mm grafts of 265 s^−1, while in the 2 mm grafts the initial MWSR was 2120 s^−1. Flow rates were continuously monitored using an ultrasonic flow meter (Transonics Systems, Ithaca, N.Y.). […] Baseline blood flow was restored through the permanent shunt after each experiment. In the 2 mm diameter grafts blood flow rates progressively declined due to thrombus formation. The grafts were removed from the AV shunts when the flow rate fell from 100 ml/min to below 20 ml/min, signaling imminent occlusion. The time from initiation of blood flow to graft removal (<20 ml/min blood flow) was taken as the occlusion time.
For imaging of the platelet deposition, autologous baboon platelets were labeled with 1 mCi of ^111In-oxine as previously described (Hanson et al. (1993) J. Clin. Invest. 92:2003-2012). Labeled platelets were infused and allowed to circulate for at least 1 h before studies were performed. Accumulation of labeled platelets onto thrombogenic grafts were measured in 5-min intervals using a gamma scintillation camera. Homologous ^125I-labeled baboon fibrinogen (4 μCi, >90% clottable) was infused 10 min before each study, and incorporation of the labeled fibrin within the thrombus was assessed using a gamma counter 30 days later to allow the ^111In to decay. The radioactivity deposited (cpm) was divided by the clottable fibrin(ogen) radioactivity of samples taken at the time of the original study (cpm/mg).

FXI [2] = biological target: T1, FXI (Homo sapiens, UniProt P03951); test: Flow chamber coagulation studies (blood perfused over collagen); format: cell-based
T1 construct: antibody 1A6 recognizes Factor XI in human and non-human primate plasma; from tissue; host or cells: normal human plasma (A4); whole human blood or reconstituted FXII-deficient human blood (A9)
Protocol: Glass capillary tubes were coated with 100 μg/ml Horm collagen (Nycomed Arzenmittel, Munich, Germany). Whole human blood was collected into corn trypsin inhibitor (CTI, 40 μg/ml), discarding the first 1 ml to limit any activation of the coagulation pathway, and then perfused through the tubes at a shear rate of 265 s^−1 for 10 min. […] In separate experiments, washed platelets and RBCs were processed as described (McCarty et al. (2006) J. Thromb. Haemost. 4:1367-1378), and then mixed with FXII deficient human plasma (<1% FXII, Haematologic Technologies, Essex Junction, Vt.) to reach a hematocrit of 40% and platelet count of 300×10^3/μl. […] Recalcified FXII deficient human plasma without RBCs or platelets was also perfused over collagen. Images were obtained by DIC microscopy after three minutes of perfusion with modified Tyrodes buffer.
When whole human blood, which was anticoagulated with CTI to block the function of FXIIa, was perfused over collagen at arterial shear (265 s^−1), platelets were deposited in large aggregates which became enveloped by forming fibrin strands (FIG. 7B). […] The outcome was similar when using reconstituted FXII deficient blood, with or without CTI. […] No fibrin was formed when recalcified FXII deficient human plasma was perfused over collagen. For these experiments, human whole blood, anticoagulated with CTI (40 μg/ml) to inhibit FXIIa, or reconstituted FXII deficient human blood was perfused through collagen coated capillary tubes at a shear rate of 265 s^−1 for 10 minutes. […] Images were obtained via Kohler-illuminated Nomarski differential interference contrast (DIC) microscopy with a Zeiss Axiovert 200M microscope using a Zeiss 63× oil immersion 1.40 NA plan-apochromat lens. Images were captured following three minutes of perfusion with modified Tyrodes buffer using a Zeiss AxioCam with Slidebook 4.0 (Intelligent Imaging Innovations, Inc., Denver, Colo., USA). All experiments were performed at 37° C. Each image in FIG. 7B is representative of 2-3 experiments.

FXI [3] = test: FXI clotting assay in vitro (FXI deficient human plasma, NBP dilutions as standards); format: biochemical, baboon; settings: serial dilutions of NBP as standards
[4] = tested on: recombinant FXI proteins with mutations within the A3 domain; test: Western blot binding to recombinant FXI A3 domain alanine mutants; set-up: species or system human; settings: 2 or 3 adjacent amino acids replaced with Alanine (FIG. 11)
Protocol: Binding studies were also conducted using recombinant FXI proteins involving mutations of different amino acids within the A3 domain to determine amino acids important for the binding of monoclonal antibody 1A6. An example of the binding of monoclonal antibody 1A6 to a panel of 25 such recombinant proteins in which 2 or 3 adjacent amino acids within the A3 domain were replaced with Alanine is shown in FIG. 11. […] Based on such studies, amino acids important for the binding of monoclonal antibody 1A6 to the FXI A3 domain were determined, and are shown in FIG. 12 (amino acids 183 to 197, 203 to 204, 234 to 236, 241 to 243, 252 to 254, and 258 to 260 of SEQ ID NO:1).

[5] = tested on: normal human plasma (NHP); test: aPTT and PT in normal human plasma in vitro; format: biochemical; settings: 0-40 nM
[6] = CTI (40 μg/ml) whole human blood, aXIMab 20 μg/ml, collagen, 265 s^-1, 10 min
[7] = FXII-inhibited or deficient human blood under flow (FIG. 7B)

B1: aXIMab: neutralizing murine IgG/kappa anti-human FXI monoclonal antibody from hybridoma 1A6; binds A3 domain; VH SEQ ID NO:3, VL SEQ ID NO:5 (antibody, listed as Mus musculus, V domains shown)
VH: QVTLKESGPGILKPSQTLSLTCSFSGFSLSTSGMGVGWIRQPSGKGLEWLAHIWWDDDKYYNPSLKSQLTISKDTSRNQVFLKITSVDAADTATYYCARKRSSVVAHYYAMDYWGQGTSVTVSS
VL: DIVLTQSPASLAVSLGQRATISCKASQSVDYDGDSYLNWYQQKPGQPPKLLIYAASNLESGIPARFSGSGSGTDFTLNIHPVEEEDAATYYCQQSNGDPWTFGGGTKLEIK
[1]
  prothrombin time (PT): without affecting
[1]; concentration-dependent
  activated partial thromboplastin time (aPTT): prolonged
Baboons (Papio anubis); 4 mm graft
  End-point fibrin deposition reduced compared with controls: 81%
Baboons (Papio anubis); 4 mm graft, control 1.18±0.19
  End-point fibrin deposition: 0.23 ± 0.07 mg
Baboons (Papio anubis); 10 min after graft exposure, 4 mm graft, control 0.23±0.03
  platelet accumulation: 0.13±0.03 ×10^9 platelets
Baboons (Papio anubis); 60 min, 4 mm graft
  Graft platelet accumulation lower than in vehicle controls: 63%
Baboons (Papio anubis); 60 min, 4 mm graft, n=6, control 3.68±0.52
  Graft platelet accumulation: 1.38±0.26 ×10^9 platelets
Baboons (Papio anubis); in vivo
  Systemic platelet counts, change following thrombosis experiments: did not change significantly
Baboons (Papio anubis); prior to thrombosis studies, control 337±31
  Systemic platelet counts: 341±27 ×10^3/μl
FXI [2]; [6]
  Fibrin deposition: noticeably attenuated
  platelet adhesion: modest reduction
FXI [2]; [7]
  platelet accumulation: reduced
  visible fibrin formation: prevented
FXI [2]; reconstituted FXII deficient human blood, with or without CTI, aXIMab 20 μg/ml
  fibrin formation: interrupted fibrin formation
FXI [3]
  IC99: 10 nM
[4]
  binding to FXI A3 domain mutants: did not bind to some mutants
[5]
  prothrombin time (PT): without affecting
[5]; concentration-dependent
  activated partial thromboplastin time (aPTT): prolonged
